The record followed here is patent publication US20220017612A1 (TILOS THERAPEUTICS, published 2022).

Where a chain is given by its changes, count along the chain named. Numbers in names are those of the source.

The target of assay [1] is T1, human LAP-TGFβ1 overexpressed on cells (human, UniProt P01137 30-390). Nature of the assay: cell-based or functional assay.
The target in assay [2] is murine LAP-TGFβ1 overexpressed on cells (mouse, UniProt P04202 30-390). Nature of the assay: cell-based or functional assay.
Chain of murine LAP-TGFβ1 overexpressed on cells (P04202 30-390): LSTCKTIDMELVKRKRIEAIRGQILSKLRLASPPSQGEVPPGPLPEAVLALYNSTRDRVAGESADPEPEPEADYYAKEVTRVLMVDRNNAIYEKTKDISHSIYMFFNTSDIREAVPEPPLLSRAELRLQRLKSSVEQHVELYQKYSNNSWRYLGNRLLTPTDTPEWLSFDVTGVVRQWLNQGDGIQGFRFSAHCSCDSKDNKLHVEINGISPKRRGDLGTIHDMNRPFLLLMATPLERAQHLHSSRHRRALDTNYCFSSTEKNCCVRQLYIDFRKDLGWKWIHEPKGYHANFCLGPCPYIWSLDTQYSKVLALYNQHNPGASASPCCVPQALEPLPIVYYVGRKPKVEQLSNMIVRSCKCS
Assay [3] concerns the target T2, LAP-TGFβ1 on U937 cells (Homo sapiens, UniProt P01137).
T2 construct: cell surface, endogenous; also called LAP+ U937 cells
The experiment in a line: flow cytometry, U937 cells, Alexa 647 antibody, % LAP+ cells. How it is done:
(§1) Anti-LAP antibodies were tested for their ability to bind to U937 cells, a myeloid cell line derived from a patient with histiocytic lymphoma. U937 cells were incubated with FACS buffer and human Fc block followed by incubation with varying concentrations of Alexa 647 conjugated 28G11_hyb, 22F9_mIgG2a, or 20E6_mIgG2a. In a separate experiment U937 cells were incubated with FACS buffer and human Fc block followed by incubation with 10 ug/ml of Alexa 647 conjugated 28G11_hyb, 22F9_mIgG2a, 20E6_mIgG2a or mIgG2a isotype control (FIGS. 10E and 10F). Representative dot plots are shown in FIG. 10G; in these plots, antibodies were at 10 ug/ml.
In general terms: A flow cytometer gives signals particle by particle.

The target in assay [4] is T2, LAP-TGFβ1 on U937 cells. The experiment in a line: flow cytometry dot plot against GARP, U937 cells, Alexa 647 antibody at 10 ug/ml. The method, then:
as §1

The target of assay [5] is T1, human LAP-TGFβ1 overexpressed on cells. The experiment in a line: flow cytometry; black bar HT1080-huB1, grey bar HT1080.
Assay [6] concerns the target T3, LAP-TGFβ1 on THP-1 cells (Homo sapiens, UniProt P01137).
T3 construct: cell surface, endogenous; also called LAP+ THP-1 cells
Nature of the assay: flow cytometry, THP-1 cells, % positive cells. The method, then:
Anti-LAP antibodies were tested for their ability to bind to THP-1 cells, a cell line derived from a patient with acute monocytic leukemia that is reported to express LRRC33. THP-1 cells were incubated with FACS buffer and human Fc block followed by incubation with varying concentrations of Alexa 647 conjugated 28G11_(hyb), 22F9_mIgG2a, 20E6_mIgG2a, 17G8_hIgG1, 24E3_hIgG1, 2C9_mIgG2a, or mIgG2a isotype control. Cells were analyzed by flow cytometry and graphed as percent positive THP-1 cells or median fluorescent intensity (MFI) of anti-LAP binding. As shown in FIGS. 10A and 10B, antibodies 22F9, 17G8, 24E3, 20E6, and 2C9 display strong binding to THP-1 cells. […] In another experiment, the binding of 20E6 mIgG2a and 7H4 hyb to THP-1 cells was compared using the methods described above. […] In a separate experiment THP-1 cells were incubated with FACS buffer and human Fc block followed by incubation with 5 ug/ml of Alexa 647 conjugated 28G11_hyb, 22F9_mIgG2a, 20E6_mIgG2a, 2C9_mIgG2a, or IgG2a isotype control. Cells were analyzed by flow cytometry and gated as single cells. Representative dot plots are shown in FIG. 10D; in these plots, antibodies were at 5 ug/ml.

Assay [7] concerns the target T1, human LAP-TGFβ1 overexpressed on cells. The experiment in a line: flow cytometry; black bar HT1080-huB1, grey bar HT1080-null.
The target in assay [8] is T4, human GARP and human LAP-TGFβ1 co-expressed on P3U1 cells (human, UniProt Q14392 20-662).
T4 construct: whole, on cells; also called P3U1 cells over-expressing human GARP and LAP-TGFβ1
T4 sequence (chain, as listed by the source, chain 1 of 2): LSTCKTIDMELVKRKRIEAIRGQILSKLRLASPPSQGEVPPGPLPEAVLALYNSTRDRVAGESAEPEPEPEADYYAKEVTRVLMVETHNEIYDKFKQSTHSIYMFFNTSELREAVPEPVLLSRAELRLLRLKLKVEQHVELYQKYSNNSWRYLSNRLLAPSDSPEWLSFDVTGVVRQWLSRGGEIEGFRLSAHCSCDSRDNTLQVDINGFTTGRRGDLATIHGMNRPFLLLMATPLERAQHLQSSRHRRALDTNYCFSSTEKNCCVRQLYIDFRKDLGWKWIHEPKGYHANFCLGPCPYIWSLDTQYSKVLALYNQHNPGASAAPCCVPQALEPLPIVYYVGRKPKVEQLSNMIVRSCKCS
T4 sequence (Q14392 20-662, chain 2 of 2): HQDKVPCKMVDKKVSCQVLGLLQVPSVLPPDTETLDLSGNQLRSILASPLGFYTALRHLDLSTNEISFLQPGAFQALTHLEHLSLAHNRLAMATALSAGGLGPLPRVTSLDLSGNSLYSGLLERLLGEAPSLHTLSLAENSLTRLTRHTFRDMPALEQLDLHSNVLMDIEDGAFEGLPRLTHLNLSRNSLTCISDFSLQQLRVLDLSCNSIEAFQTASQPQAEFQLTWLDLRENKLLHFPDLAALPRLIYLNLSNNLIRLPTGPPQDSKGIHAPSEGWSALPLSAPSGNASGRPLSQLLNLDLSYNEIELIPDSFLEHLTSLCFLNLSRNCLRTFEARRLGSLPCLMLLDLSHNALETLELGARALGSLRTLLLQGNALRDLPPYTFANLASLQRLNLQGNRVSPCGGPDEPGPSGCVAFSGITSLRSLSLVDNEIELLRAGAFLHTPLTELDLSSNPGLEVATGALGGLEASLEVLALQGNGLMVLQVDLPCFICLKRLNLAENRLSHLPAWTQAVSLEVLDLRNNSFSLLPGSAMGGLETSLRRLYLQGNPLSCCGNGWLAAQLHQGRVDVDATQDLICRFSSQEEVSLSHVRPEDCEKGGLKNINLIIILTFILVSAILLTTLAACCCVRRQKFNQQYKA
The experiment in a line: flow cytometry competition with biotin-28G11 (0.31 µg) on P3U1 cells with human GARP and LAP-TGFβ1. The method, then:
In the first experiment, the various humanized 28G11 candidates were tested for retention of binding to human LAP-TGFβ1 by competition with biotin-28G11 in a flow cytometry assay.
P3U1 cells over-expressing human GARP and LAP-TGFβ1 were placed in a round-bottom 96-well plate at density of 40,000 cells/well. The cells were washed with FACS buffer (25 mM HEPES, 2 mM EDTA, 2% fetal bovine serum in Hank's Balanced Salt Solution). 50 μL of 1:200 diluted TruStain Mouse FcX (BioLegend) was added to each well, followed by 50 μL of 100 ng/μL of humanized 28G11 construct (H0L0, H0L1, H0L2, H0L3, HILO, H1L1, H1L2, H1L3, H2L0, H2L1, H2L2, H2L3). The antibody was allowed to bind for 10 minutes. 50 μL of 6.2 ng/μL of biotinylated murine hybridoma 28G11_(hyb) was added to each well. The biotinylated antibody was allowed to bind for 10 minutes, and then the cells were washed twice with FACS buffer. The cells were labeled for 15 minutes with allophytocyanin-streptavidin (BioLegend), washed twice with FACS buffer, and analyzed by flow cytometry.

By EC50 (read off the curve) is commonly meant the concentration that produces a half-maximal response. High values mean a less potent agent, low ones a more potent agent.

T1 sequence (P01137 30-390): as the sequence (chain, as listed by the source, chain 1 of 2) above
T2 sequence (P01137 30-390 limits assumed): as the sequence (chain, as listed by the source, chain 1 of 2) above
T3 sequence (P01137 30-390 limits assumed): as the sequence (chain, as listed by the source, chain 1 of 2) above

B1: 22F9_mIgG2a (antibody, V domains shown)
VH: QVQLQQPGAELVKPGASVKLSCKASGYTFTSYWMHWVKQRPGQGLEWIGMIHPNSGSTNYNEKFKSKATLTVDKSSSTAYMQLSSLTSEDSAVYYCAYYDYDGFFDVWGTGTTVTVSS
VL: DIVLTQSPASLDVSLGQRATISCRASKSVSTSGYSYMHWYQQKSGQPPKLLIYLASNLESGVPARFSGSGSGTHFTLNIHPVEEEDAATYYCQHSRELPYTFGGGTKLEIK
notes: also called 22F9_IgG2a
Take B1: the “IC50 of inhibition of TGFβ1 activation” value in assay [1] was 1.8 µg/mL. For the same molecule, in assay [2], the “IC50 of inhibition of TGFβ1 activation” value came to 1 µg/mL. The “EC50 (read off the curve)” value in assay [3] is about 20 µg/mL. Moreover, in assay [4], the “% of cells in Q1 (antibody axis positive, GARP negative)” value came to 43.8% and the “% of cells in Q2 (antibody axis positive, GARP positive)” value amounted to 0.44%.

B2: 22F9_Y98R (antibody, human IgG1, kappa, V domains shown)
VH: B1 VH with Q5V, L11V, Q82E, T87R, S91T, Y98R, T110Q, T113L
VL: DIQLTQSPSSLSASVGDRVTITCRASKSVSTSGYSYMHWYQQKPGKAPKLLIYLASNLESGVPSRFSGSGSGTDFTLTISSLQPEDFATYYCQHSRELPYTFGGGTKVEIKR
notes: also called 22F9_H5L0 with VH Y98R
As for B2, the binding result in assay [5] is “binds”.

B3: 7H4 (antibody, mouse IgG2b, kappa, V domains shown)
VH: DVQLQESGPGLVKPSQSLSLTCSVTGYSITSGYYWNWIRQFPGNKLEWMGYISYDGTNNYNPSLKNRISITRDTSKHQFFLKLNSVTTEDTATYYCARSFYNNYFDFWGQGTTLTVSS
VL: DIQMTQSPSSLSASLGGKVTITCKASQDIDKYIAWYQHKPGKGPRLLIHYTSTLQPGIPSRFSGSGSGRDYSFNISNLEPEDIATYYCLQYDNLRTFGGGTKLEIKR
notes: also called 7H4 hyb; 7H4_(hyb)
As to B3, the binding result in assay [6] is on record as “no binding (tested: 100 ug/ml)”.

B4: 20E6 H0.1 construct (antibody, human IgG1, kappa, V domains shown)
VH: QVQLVQSGAEVKKPGASVKVSCKASGYTFTSYWMHWVRQAPGQGLEWMGRIDPNSGGIKYAQKFQGRATLTVDTSTSTAYMELSRLRSDDTAVYYCARWDYGGYFDVWGQGTLVTVSS
VL: DIQMTQSPSSLSASVGDRVTITCRASQDITNYLNWYQQKPGKAVKLLIYYTSRLHSGVPSRFSGSGSGTDYTLTISSLQPEDFATYFCQQGDTLPWTFGQGTKLEIKR
Consider B4, for which the binding result in assay [7] is recorded as “binds”.

B5: 28G11_H2L0 (antibody, human IgG1, kappa, V domains shown)
VH: EVQLVESGGGLVQPGGSLRLSCAASGFTFTDYYMSWVRQAPGKGLEWLGFIRNKPNGYTTEYSASVKGRFTISRDNSQSSLYLQMNSLKTEDTAVYYCARYTGGGYFDYWGQGTLLTVSS
VL: B4 VL with T30S, A43V, V44P, Y71F, F83V, F87Y
In the case of B5, in assay [8], the binding result is given as “no binding (tested: 5 µg competitor)”.

B6: 28G11_H0L3 (antibody, human IgG1, kappa, V domains shown)
VH: B5 VH with T30S, L48V, N76D, Q78K, S79N, L116V
VL: B4 VL with V19L, T22S, T30S, A43T, F83V
B6: the binding result in assay [8] is “no binding (tested: 5 µg competitor)”.
